From FireProtDB (doi:10.1021/bi00042a027)
Where “and” joins values, the source holds several entries; their conditions need not be identical. Equal entries are not always repeated.

B1: Phosphoglycerate kinase, P00560 (parent)
chain: MSLSSKLSVQDLDLKDKRVFIRVDFNVPLDGKKITSNQRIVAALPTIKYVLEHHPRYVVLASHLGRPNGERNEKYSLAPVAKELQSLLGKDVTFLNDCVGPEVEAAVKASAPGSVILLENLRYHIEEEGSRKVDGQKVKASKEDVQKFRHELSSLADVYINDAFGTAHRAHSSMVGFDLPQRAAGFLLEKELKYFGKALENPTRPFLAILGGAKVADKIQLIDNLLDKVDSIIIGGGMAFTFKKVLENTEIGDSIFDKAGAEIVPKLMEKAKAKGVEVVLPVDFIIADAFSADANTKTVTDKEGIPAGWQGLDNGPESRKLFAATVAKAKTIVWNGPPGVFEFEKFAAGTKALLDEVVKSSAAGNTVIIGGGDTATVAKKYGVTDKISHVSTGGGASLELLEGKELPGVAFLSEKK

Variants of: B1
Details: Saccharomyces cerevisiae (strain ATCC 204508 / S288c), pH 7.5, 25 °C, GdnHCl, Sodium phosphate 20 mM, structure 3PGK, whole UniProt chain shown

Variant	ddG of mutation (higher = less stable) (CD)	denaturant m value (CD)	denaturant midpoint (higher = more stable) (CD)	unfolding free energy (CD)	ddG of mutation (higher = less stable) (CD, transition: 3)	denaturant m value (CD, transition: 3)	denaturant midpoint (higher = more stable) (CD, transition: 3)	unfolding free energy (CD, transition: 3)	ddG of mutation (higher = less stable) (Fluorescence, transition: 3)	denaturant midpoint (higher = more stable) (Fluorescence, transition: 3)	unfolding free energy (Fluorescence, transition: 3)	denaturant m value (Fluorescence)	denaturant midpoint (higher = more stable) (Fluorescence)	unfolding free energy (Fluorescence)	ddG of mutation (higher = less stable) (Fluorescence)	denaturant m value (Fluorescence, transition: 3)
Y123W	1.29 kcal/mol	13.7 kcal/mol/M	0.42 M	5.79 kcal/mol	5.65 kcal/mol	3.2 kcal/mol/M	0.86 M	2.72 kcal/mol	0.57 kcal/mol and 0.91 kcal/mol	0.4 M and 0.91 M	4.81 kcal/mol and 3.45 kcal/mol	–	–	–	–	–
Y49W	–	–	–	–	1.77 kcal/mol and 4.83 kcal/mol	–	0.41 M and 1.06 M	4.31 kcal/mol and 3.54 kcal/mol	–	0.42 M and 0.92 M	5.31 kcal/mol and 3.8 kcal/mol	–	–	–	–	–
F195W	–	–	–	–	0.64 kcal/mol	10.2 kcal/mol/M	0.53 M	5.44 kcal/mol	–	0.52 M and 0.91 M	6.3 kcal/mol and 2.68 kcal/mol	–	–	–	–	–
L400W	–	–	–	–	2.68 kcal/mol and 3.31 kcal/mol	8.1 kcal/mol/M and 5.3 kcal/mol/M	0.42 M and 0.95 M	3.4 kcal/mol and 5.06 kcal/mol	–	–	–	10.7 kcal/mol/M	0.39 M	4.15 kcal/mol	–	–
W309Y	–	–	–	–	–	10.9 kcal/mol/M and 5.8 kcal/mol/M	0.62 M and 0.84 M	6.85 kcal/mol and 4.87 kcal/mol	–	–	–	14.8 kcal/mol/M	0.64 M	9.42 kcal/mol	–	–
Y49W W309Y	–	–	–	–	–	–	0.55 M and 0.96 M	5.93 kcal/mol and 2.34 kcal/mol	-0.58 kcal/mol	0.92 M	4.94 kcal/mol	12.7 kcal/mol/M	0.54 M	6.84 kcal/mol	-1.46 kcal/mol	5.4 kcal/mol/M
Y49W W334Y	–	–	–	–	–	–	0.51 M and 0.91 M	7.89 kcal/mol and 3.64 kcal/mol	–	0.53 M and 0.9 M	6.85 kcal/mol and 4.45 kcal/mol	–	–	–	–	12.9 kcal/mol/M and 5 kcal/mol/M
W334Y	–	–	–	–	–	–	0.63 M and 0.82 M	–	–	–	–	12.4 kcal/mol/M	0.62 M	7.66 kcal/mol	–	–
